What was measured:
human CD3εδ (human) [1] = biological target: human CD3εδ (human) (UniProt P07766); assay: SPR, Biacore T200; human CD3εδ immobilised on CM5 chip, antibody as analyte (Example 2-3)
human CD3εδ (human) [2] = biological target: human CD3εδ (human) (UniProt P07766); assay: SPR, Biacore T200; human CD3εδ immobilised on CM5 chip, antibody as analyte
human CD3εγ (human) = human CD3εγ (human) (UniProt P07766); assay: SPR, Biacore T200; human CD3εγ immobilised on CM5 chip, antibody as analyte
[3] = biological target: human CD3 on T cells of human peripheral blood mononuclear cells (human) (UniProt P07766); assay: cell-based or functional assay
human CD3εδ (human) [4] = biological target: human CD3εδ (human) (UniProt P07766); assay: SPR, Biacore T200; ratio between the KD values on CD3εδ and CD3εγ

Sequence of human CD3εδ (human) (P07766 23-126, stated change not applied, chain 1 of 2): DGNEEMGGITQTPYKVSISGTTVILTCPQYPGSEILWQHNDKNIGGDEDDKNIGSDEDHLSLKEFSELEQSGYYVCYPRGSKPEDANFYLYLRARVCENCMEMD
Sequence of human CD3εδ (human) (P04234 22-105, stated change not applied, chain 2 of 2, further chain): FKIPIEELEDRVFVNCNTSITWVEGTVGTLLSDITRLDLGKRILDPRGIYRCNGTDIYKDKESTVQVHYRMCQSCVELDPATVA
Sequence of human CD3 on T cells of human peripheral blood mononuclear cells (human) (P07766 23-207, chain 1 of 3): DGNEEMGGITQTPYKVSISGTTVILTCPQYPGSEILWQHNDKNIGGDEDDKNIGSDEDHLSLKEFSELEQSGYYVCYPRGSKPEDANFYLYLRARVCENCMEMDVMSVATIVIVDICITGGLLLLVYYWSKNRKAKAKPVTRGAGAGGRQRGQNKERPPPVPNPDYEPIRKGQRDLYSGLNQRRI
Sequence of human CD3 on T cells of human peripheral blood mononuclear cells (human) (P04234 22-171, chain 2 of 3, further chain): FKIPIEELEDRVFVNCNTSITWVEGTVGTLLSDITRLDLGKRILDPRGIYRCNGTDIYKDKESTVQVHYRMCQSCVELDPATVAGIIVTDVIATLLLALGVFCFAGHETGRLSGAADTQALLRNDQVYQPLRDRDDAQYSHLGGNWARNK
Sequence of human CD3 on T cells of human peripheral blood mononuclear cells (human) (P09693 23-182, chain 3 of 3, further chain): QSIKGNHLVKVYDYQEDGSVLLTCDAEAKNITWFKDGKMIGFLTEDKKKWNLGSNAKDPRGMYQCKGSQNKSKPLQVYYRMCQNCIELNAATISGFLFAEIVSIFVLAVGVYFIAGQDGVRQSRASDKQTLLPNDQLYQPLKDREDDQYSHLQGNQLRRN
Sequence of human CD3εγ (human) (P07766 23-126, chain 1 of 2): as the sequence (P07766 23-126, stated change not applied, chain 1 of 2) above
Sequence of human CD3εγ (human) (P09693 23-116, chain 2 of 2, further chain): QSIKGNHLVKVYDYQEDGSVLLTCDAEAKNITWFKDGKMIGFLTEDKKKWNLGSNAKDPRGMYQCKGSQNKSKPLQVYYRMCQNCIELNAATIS

Substance: CD3 (UCHT1)-binding monoclonal antibody
- Kd (human CD3εδ (human) [1]): 0.0341 nM
- Kd (human CD3εδ (human) [2]): 0.0141 nM
- Kd (human CD3εγ (human)): 0.272 nM
- Death of cancer cells, EC50 nM (MDA-MB-231 + human PBMC, 48 h) [3]: 0.0005 nM
- Death of cancer cells, Emax (%) [3]: 46%
- IFNγ release, EC50 nM [3]: 0.003 nM
- IFNγ release, Maximum concentration [3]: 16 ng/mL
- T cell activation (CD3+ CD8+ CD69+), human PBMC alone without target cells [3]: 60%
- ratio of the binding strength to CD3εδ / binding strength to CD3εγ (human CD3εδ (human) [4]): 19.3 fold

— patent publication EP4682170A1
